Common to all, as to test: pull-down
Assay [1] deals with phosphorylated CTD-GFP (S. pombe, UniProt P36594 1549-1751, phosphorylated (sites not told for this preparation)).
Assay [2] concerns the target T1, Ssu72-His (S. pombe, UniProt O42868 1-197).
T1 sequence (looked up): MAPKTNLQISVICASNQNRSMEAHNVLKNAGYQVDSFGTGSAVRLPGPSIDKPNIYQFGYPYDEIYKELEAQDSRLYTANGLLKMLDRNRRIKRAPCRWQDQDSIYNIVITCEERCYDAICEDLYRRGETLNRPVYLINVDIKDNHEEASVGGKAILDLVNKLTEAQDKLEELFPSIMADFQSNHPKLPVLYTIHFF

Assay [3] addresses T2, Sty1 (K49R)-His (S. pombe, UniProt Q09892 1-349, K49R).
T2 sequence (looked up): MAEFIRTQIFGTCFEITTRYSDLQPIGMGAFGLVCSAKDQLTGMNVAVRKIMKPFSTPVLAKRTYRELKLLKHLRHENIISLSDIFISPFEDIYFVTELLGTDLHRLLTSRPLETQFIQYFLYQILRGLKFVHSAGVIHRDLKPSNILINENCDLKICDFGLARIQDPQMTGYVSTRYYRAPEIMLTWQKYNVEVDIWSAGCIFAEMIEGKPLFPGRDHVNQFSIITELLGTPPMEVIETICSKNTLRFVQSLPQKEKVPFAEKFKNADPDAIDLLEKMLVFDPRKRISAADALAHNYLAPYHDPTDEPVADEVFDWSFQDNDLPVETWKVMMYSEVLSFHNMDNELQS

The target in assay [4] is T3, Sty1-His (S. pombe, UniProt Q09892 1-349).
T3 sequence (looked up): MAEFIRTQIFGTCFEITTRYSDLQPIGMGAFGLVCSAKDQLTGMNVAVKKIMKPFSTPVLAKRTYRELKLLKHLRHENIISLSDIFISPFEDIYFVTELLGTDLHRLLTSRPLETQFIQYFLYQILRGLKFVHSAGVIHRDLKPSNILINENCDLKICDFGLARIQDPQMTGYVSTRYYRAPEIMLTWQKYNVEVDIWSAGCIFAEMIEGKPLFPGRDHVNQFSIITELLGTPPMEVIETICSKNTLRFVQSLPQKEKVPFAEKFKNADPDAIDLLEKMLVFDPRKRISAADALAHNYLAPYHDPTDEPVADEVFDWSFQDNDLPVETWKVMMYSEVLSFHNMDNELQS

Chain of phosphorylated CTD-GFP (P36594 1549-1751): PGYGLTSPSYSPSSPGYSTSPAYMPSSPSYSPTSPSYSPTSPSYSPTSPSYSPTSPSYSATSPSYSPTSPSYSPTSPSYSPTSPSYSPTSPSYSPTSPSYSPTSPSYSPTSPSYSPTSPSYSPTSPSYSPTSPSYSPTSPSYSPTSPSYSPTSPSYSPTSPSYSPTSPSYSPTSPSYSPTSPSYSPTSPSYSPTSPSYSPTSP

B1: Pin1-GST (natural protein, S. pombe, UniProt O74448 1-175, looked up)
chain: MSNTGLPKPWIVKISRSRNRPYFFNTETHESLWEPPAATDMAALKKFIANELQESVTPTEASNSPKIRASHLLVKHRESRRPSSWKEEHITRSKEEARKLAEHYEQLLKSGSVSMHDLAMKESDCSSARRGGELGEFGRDEMQKPFEDAAFALKPGEISGVVETSSGFHIIQRHA
Regarding B1, the binding result in assay [1] and in assay [2] was “binds” in each case.

B2: Pin1 (S79E)-GST (natural protein, S. pombe, UniProt O74448 1-175, looked up)
chain: MSNTGLPKPWIVKISRSRNRPYFFNTETHESLWEPPAATDMAALKKFIANELQESVTPTEASNSPKIRASHLLVKHREERRPSSWKEEHITRSKEEARKLAEHYEQLLKSGSVSMHDLAMKESDCSSARRGGELGEFGRDEMQKPFEDAAFALKPGEISGVVETSSGFHIIQRHA
Turning to B2, in assay [1], the binding result is given as “binds”.

B3: GST-Rpb1-CTD (domain or fragment)
chain: not shown
Consider B3, for which the binding result in assay [3] and in assay [4] was “binds” each time.

The values above are taken from PMC7826279 (Nucleic Acids Research, 2021).
